In patent publication US11292821B2, “Peptides and combination of peptides for use in immunotherapy against lung cancer, including NSCLC, SCLC and other cancers” (Immatics Biotechnologies GmbH, priority 2017, dated 2022):

Tests used:
[1] = target: HLA-A*02 (Homo sapiens, UniProt P04439, D140Y/D185E/D98H/E176V/E277Q/G131W/G231S/I119V/I121R/I166T/I218V/N151K/N90K/P208A/P217A/Q86G/Q94H/R138H/R169H); test: MHC binding assay (UV-ligand exchange, β2m ELISA)
Excerpt: Candidate peptides for T cell based therapies according to the present invention were further tested for their MHC binding capacity (affinity). The individual peptide-MHC complexes were produced by UV-ligand exchange, where a UV-sensitive peptide is cleaved upon UV-irradiation, and exchanged with the peptide of interest as analyzed. Only peptide candidates that can effectively bind and stabilize the peptide-receptive MHC molecules prevent dissociation of the MHC complexes. To determine the yield of the exchange reaction, an ELISA was performed based on the detection of the light chain (β2m) of stabilized MHC complexes. The assay was performed as generally described in Rodenko et al. (Rodenko et al., 2006).
96 well MAXISorp plates (NUNC) were coated over night with 2 ug/ml streptavidin in PBS at room temperature, washed 4× and blocked for 1 h at 37° C. in 2% BSA containing blocking buffer. […] Peptide-MHC monomers of the UV-exchange reaction were diluted 100-fold in blocking buffer. Samples were incubated for 1 h at 37° C., washed four times, incubated with 2 ug/ml HRP conjugated anti-β2m for 1h at 37° C., washed again and detected with TMB solution that is stopped with […]. Absorption was measured at 450 nm. Candidate peptides that show a high exchange yield (preferably higher than 50%, most preferred higher than 75%) are generally preferred for a generation and production of antibodies or fragments thereof, and/or T cell receptors or fragments thereof, as they show sufficient avidity to the MHC molecules and prevent dissociation of the MHC complexes.

[2] = tested on: CD8+ T cells; test: In vitro T-cell priming assay with aAPCs (in vitro immunogenicity for MHC class I presented peptides); type: cell-based, human; conditions: in vitro immunogenicity
[3] = tested on: HLA-B*44; test: MHC binding assay (UV-ligand exchange, β2m ELISA); parameters: species or system human; conditions: UV-ligand exchange, β2m ELISA

Substance | Peptide exchange (peptide exchange yield, MHC class I binding score) [1] | other results
84 (YVDINTFRL; listed as Homo sapiens) [compound 84] | “++++” (>75% = ++++) | Wells positive [%] ([2]; HLA A*02): “+” (<20% = +)
103 (FLYYPDPVL; listed as Homo sapiens) [compound 103] | “++++” (>75% = ++++) | –
85 (YIDEFQSLV; listed as Homo sapiens) [compound 85] | “++++” (>75% = ++++) | Wells positive [%] ([2]; HLA A*02): “++” (20%-49% = ++)
96 (HLVGGLHTV; listed as Homo sapiens) [compound 96] | “++++” (>75% = ++++) | Wells positive [%] ([2]; HLA A*02): “+++” (50%-69% = +++)
89 (ILSTTMVTV; listed as Homo sapiens) [compound 89] | “++++” (>75% = ++++) | Wells positive [%] ([2]; HLA A*02): “+++” (50%-69% = +++)
109 (LLLGSIGLLGV; listed as Homo sapiens) [compound 109] | “++++” (>75% = ++++) | –
98 (LQSSGLTLLL; listed as Homo sapiens) [compound 98] | “++++” (>75% = ++++) | –
95 (ITIGVLARV; listed as Homo sapiens) [compound 95] | “++++” (>75% = ++++) | Wells positive [%] ([2]; HLA A*02): “++++” (>=70% = ++++)
105 (SLLTHIPTA; listed as Homo sapiens) [compound 105] | “++++” (>75% = ++++) | –
110 (LLADFQALL; listed as Homo sapiens) [compound 110] | “++++” (>75% = ++++) | –
97 (VLALVNSTV; listed as Homo sapiens) [compound 97] | “++++” (>75% = ++++) | Wells positive [%] ([2]; HLA A*02): “+++” (50%-69% = +++)
92 (NLRDLLSEV; listed as Homo sapiens) [compound 92] | “+++” (>50 = +++) | –
106 (FIIDTTYPAYV; listed as Homo sapiens) [compound 106] | “++++” (>75% = ++++) | –
87 (TLYPYQISQL; listed as Homo sapiens) [compound 87] | “++++” (>75% = ++++) | Wells positive [%] ([2]; HLA A*02): “++” (20%-49% = ++)
104 (GMLDIFWGV; listed as Homo sapiens) [compound 104] | “++++” (>75% = ++++) | –
101 (FIISDWRFVL; listed as Homo sapiens) [compound 101] | “+++” (>50 = +++) | Wells positive [%] ([2]; HLA A*02): “+” (<20% = +)
100 (RQYPTPFQL; listed as Homo sapiens) [compound 100] | “++++” (>75% = ++++) | –
86 (FVIDGFDEL; listed as Homo sapiens) [compound 86] | “++++” (>75% = ++++) | –
323 (SEFMQVIF; listed as Homo sapiens) [compound 323] | – | Peptide exchange (peptide exchange yield, MHC class I binding score) [3]: “+++” (>50 =+++); Wells positive [%] ([2]; HLA B*44): “+” (<20% = +)
91 (FALPGLLHA; listed as Homo sapiens) [compound 91] | “+++” (>50 = +++) | –
337 (TENRYCVQL; listed as Homo sapiens) [compound 337] | – | Peptide exchange (peptide exchange yield, MHC class I binding score) [3]: “++++” (>75% = ++++); Wells positive [%] ([2]; HLA B*44): “++” (20%-49% = ++)
102 (SLLEQAIAL; listed as Homo sapiens) [compound 102] | “++++” (>75% = ++++) | –
107 (LLQGAIESV; listed as Homo sapiens) [compound 107] | “++++” (>75% = ++++) | –
333 (AETLSTIQI; listed as Homo sapiens) [compound 333] | – | Peptide exchange (peptide exchange yield, MHC class I binding score) [3]: “+++” (>50 =+++); Wells positive [%] ([2]; HLA B*44): “+” (<20% = +)
476 (AEEEIMKKI; listed as Homo sapiens) [compound 476] | – | Peptide exchange (peptide exchange yield, MHC class I binding score) [3]: “++” (>20% = ++); Wells positive [%] ([2]; HLA B*44): “+” (<20% = +)
477 (QENSYQSRL; listed as Homo sapiens) [compound 477] | – | Peptide exchange (peptide exchange yield, MHC class I binding score) [3]: “+++” (>50 =+++); Wells positive [%] ([2]; HLA B*44): “+” (<20% = +)
111 (ALCLLLHLL; listed as Homo sapiens) [compound 111] | “+” (>10% = +) | –
99 (FLKEKVPGI; listed as Homo sapiens) [compound 99] | “++++” (>75% = ++++) | –
322 (KEVDPAGHSY; listed as Homo sapiens) [compound 322] | – | Peptide exchange (peptide exchange yield, MHC class I binding score) [3]: “++” (>20% = ++); Wells positive [%] ([2]; HLA B*44): “++” (20%-49% = ++)

Now from value to substance, other results behind:

Peptide exchange (peptide exchange yield, MHC class I binding score) [1] | Substance | other results
“++++” (>75% = ++++) | 392 (SLFKDQMEL; listed as Homo sapiens) [compound 392] | Wells positive [%] ([2]; HLA A*02): “+” (<20% = +)
“++++” (>75% = ++++) | 117 (FLDPNARPLV; listed as Homo sapiens) [compound 117] | –
“++++” (>75% = ++++) | 131 (LLKEFVQRV; listed as Homo sapiens) [compound 131] | Wells positive [%] ([2]; HLA A*02): “++++” (>=70% = ++++)
“++++” (>75% = ++++) | 114 (ILDERQVLL; listed as Homo sapiens) [compound 114] | –
“++++” (>75% = ++++) | 132 (ALWLVDPLTV; listed as Homo sapiens) [compound 132] | Wells positive [%] ([2]; HLA A*02): “+++” (50%-69% = +++)
“++++” (>75% = ++++) | 112 (SVSDGIHSV; listed as Homo sapiens) [compound 112] | –
“++++” (>75% = ++++) | 125 (VLQPFLPSI; listed as Homo sapiens) [compound 125] | Wells positive [%] ([2]; HLA A*02): “++++” (>=70% = ++++)
“++++” (>75% = ++++) | 120 (ALLANLPAV; listed as Homo sapiens) [compound 120] | –
“++++” (>75% = ++++) | 127 (GLDGSLVFL; listed as Homo sapiens) [compound 127] | Wells positive [%] ([2]; HLA A*02): “++” (20%-49% = ++)
“++++” (>75% = ++++) | 128 (FLGTTPTL; listed as Homo sapiens) [compound 128] | Wells positive [%] ([2]; HLA A*02): “+” (<20% = +)
“++” (>20% = ++) | 123 (LMAFFLAVV; listed as Homo sapiens) [compound 123] | –
“++++” (>75% = ++++) | 116 (VLMEENSKL; listed as Homo sapiens) [compound 116] | –
“++++” (>75% = ++++) | 390 (HIMPTVHTV; listed as Homo sapiens) [compound 390] | –
“++++” (>75% = ++++) | 129 (VLYDKDAVYV; listed as Homo sapiens) [compound 129] | Wells positive [%] ([2]; HLA A*02): “++” (20%-49% = ++)
“++++” (>75% = ++++) | 391 (SLIDMRGIETV; listed as Homo sapiens) [compound 391] | –
“++++” (>75% = ++++) | 122 (ALLEMFPEITV; listed as Homo sapiens) [compound 122] | –
“++++” (>75% = ++++) | 124 (SVASVLLYL; listed as Homo sapiens) [compound 124] | –
“++++” (>75% = ++++) | 119 (RTADITVTV; listed as Homo sapiens) [compound 119] | –
“++++” (>75% = ++++) | 121 (ALVDTLTGI; listed as Homo sapiens) [compound 121] | –
“++++” (>75% = ++++) | 389 (TLMEQPLTTL; listed as Homo sapiens) [compound 389] | –
“++++” (>75% = ++++) | 126 (FLSTVTSV; listed as Homo sapiens) [compound 126] | –
“++++” (>75% = ++++) | 113 (AVLTGLVEV; listed as Homo sapiens) [compound 113] | –
“++++” (>75% = ++++) | 115 (MLLETQDALYV; listed as Homo sapiens) [compound 115] | –
“++++” (>75% = ++++) | 388 (FSIPEGALVAV; listed as Homo sapiens) [compound 388] | –
“++++” (>75% = ++++) | 118 (ALSSVLHSI; listed as Homo sapiens) [compound 118] | –
